Assay: soluble on expression in E. coli; label from the status in PepcDB or PDB records

| Sequence | soluble on expression in E. coli |
| --- | --- |
| AAGAAPVDISTLPRVKVDLVKPPFVHAHDQVAKTGPRVVEFTMTIEEKKLVIDREGTEIHAMTFNGSVPGPLMVVHENDYVELRLINPDTNTLLHNIDFHAATGALGGGALTQVNPGEETTLRFKATKPGVFVYHCAPEGMVPWHVTSGMNGAIMVLPRDGLKDEKGQPLTYDKIYYVGEQDFYVPKDEAGNYKKYETPGEAYEDAVKAMRTLTPTHIVFNGAVGALTGDHALTAAVGERVLVVHSQANRDTRPHLEGGHGDYVWATGKFRNPPDLDQETWLIPGGTAGAAFYTFRQPGVYAYVNHNLIEAFELGAAGHFKVTGEWNDDLMTSVVKPASM | soluble |
| AAGKDFVVKGKDGWAIIAGYHWFDEWGRDTFISLEGLLLVDKQYDIAKEIILKYLNLEKRGMLPNNFISYNGEPVYRGVDISLWAINAIYKTYIYSRDKNFIRKVVDKVLDIIDWYSKGNGVIYNVDNLIFHKGAPRTWMDASYDSRIVTPREGAAVEINALWYNALRVTEFLLNELGEKAEYLSEKAESVKKSFAEKFISQDGLYDYINWDNIPDKSIRPNQIFSISLPFPIIDDKSIASKILTLIESKLLRQYGLSSLSREDPNYKPVYKGDRRSRESLPQWTHMALVTRRLC | not soluble |
| AAGVLKHRRRKEKAQRKLVGMQANLDRLSDLTAELGKQLKPLARQAEAARKAATIQSEVRDARLRIAGYQIHSLASSLKDAQSHHDSIAEKLEEVTEQLEEATGVQLEAEDALGKISPEAEKSQQLWFELSSLAERVSATQRIATDRAKNFSEVRYSGPDPDELAEKAARADAEYAEAEETVDILSERLESIQDNVAELEEQAQRADREHLAQVRAIADRREGIVRLLTLESQQREHIVAAEAELERLREAESDIAAQARSKDAEHKDCQTQAQEARSRIEPLSQSRDAALNESRAADSRLEQLREQQSDIDKSISRLESKIETLESHRMTRNAVKQWEKLQSFYGVDRYIIPQRGMEKAIAAALGPVAEALVGETTTAELQALDIESLARHIVITPGEDHDWRLATDLPHYASWLLDYVELAPEVSSTIVQILADVVLVDSYEHGREVVNHDPRLRAVCVDGTMWGHGWVAVGSAERSAVEIAAEIDQAEKDLEVARLQRVELAGTLNGAHQAADEARVRSAQAQAVCREQEIVVENFSRRVEAVSHEAEARKQELRRHALRVQEAQDRLNQLRQLWEETSDRLSRVEEDNSEEEPSTSERDKAAAALSHMRSMEVEARLSLRTAQDKAEHIRGRGDGLRRQAEYERQARARHDQAVARQRRKAEIASVVAQQCLVVAERVDDALARATQWKENAIAQRGVISARVSAAKDTVSALRTNANRLTEKSHAAELSLGQAQVRLEEAHEKIVEQLGIAISDLMRDYTPHEGFDIGAQRVRLKNAEKDLNALGKVNPLALEEFKALEERYEFLSTQLADVEQARRDLHGVINDVDTKILQ | not soluble |
| AAHQLTIVHLEARDIDRPNPQLEIAPKEGTPIEGVLYQLYQLKSTEDGDLLAHWNSLTITELKKQAQQVFEATTNQQGKATFNQLPDGIYYGLAVKAGEKNRNVSAFLVDLSEDKVIYPKIIWSTGELDLLKVGVDGDTKKPLAGVVFELYEKNGRTPIRVKNGVHSQDIDAAKHLETDSSGHIRISGLIHGDYVLKEIETQSGYQIGQAETAVTIEKSKTVTVTIENKKVPTPKVPSR | soluble |
| AALSNLSIRTTAHRFMEEMSMYAQAPVALAARDRLNMLYLDVVQTNSTMRRPIGSTLPLHNSSMGRACLAATPKQERYFLLEAIQKREPENWIEIKEKLDIAFDQYAEYGYCLSLGEWQQGINSVAVPLMSTKHGLYVFNCGAPSYALSTEKLIEDIGPRLKYMVNSIQDALTESL | not soluble |
| AAPDEITTAWPVNVGPLNPHLYTPNQMFAQSMVYEPLVKYQADGSVIPWLAKSWTHSEDGKTWTFTLRDDVKFSNGEPFDAEAAAENFRAVLDNRQRHAWLELANQIVDVKALSKTELQITLKSAYYPFLQELALPRPFRFIAPSQFKNHETMNGIKAPIGTGPWILQESKLNQYDVFVRNENYWGEKPAIKKITFNVIPDPTTRAVAFETGDIDLLYGNEGLLPLDTFARFSQNPAYHTQLSQPIETVMLALNTAKAPTNELAVREALNYAVNKKSLIDNALYGTQQVADTLFAPSVPYANLGLKPSQYDPQKAKALLEKAGWTLPAGKDIREKNGQPLRIELSFIGTDALSKSMAEIIRADMRQIGADVSLIGEEESSIYARQRDGRFGMIFHRTWGAPYDPHAFLSSMRVPSHADFQAQQGLADKPLIDKEIGEVLATHDETQRQALYRDILTRLHDEAVYLPISYISMMVVSKPELGNIPYAPIATEIPFEQIKPVKP | soluble |
| AAPSFDCGKPQVEPKKCPGRVVGGCVAHPHSWPWQVSLRTRFGMHFCGGTLISPEWVLTAAHCLEKSPRPSSYKVILGAHQEVNLEPHVQEIEVSRLFLEPTRKDIALLKLSSPAVITDKVIPACLPSPNYVVADRTECFITGWGETQGTFGAGLLKEAQLPVIENKVCNRYEFLNGRVQSTELCAGHLAGGTDSCQGDSGGPLVCFEKDKYILQGVTSWGLGCARPNKPGVYVRVSRFVTWIEGVMRNN | soluble |
| ADIVNLQGVTGGNTYSVPAVTMDLLSGKDVAVEEFPRKLLTFKEKLGEGQFGEVHLCEVEGMEKFKDKDFALDVSANQPVLVAVKMLRADANKNARNDFLKEIKIMSRLKDPNIIHLLAVCITDDPLCMITEYMENGDLNQFLSRHEPPNSSSSDVRTVSYTNLKFMATQIASGMKYLSSLNFVHRDLATRNCLVGKNYTIKIADFGMSRNLYSGDYYRIQGRAVLPIRWMSWESILLGKFTTASDVWAFGVTLWETFTFCQEQPYSQLSDEQVIENTGEFFRDQGRQTYLPQPAICPDSVYKLMLSCWRRDTKNRPSFQEIHLLLLQQGDE | not soluble |
| ADLLSKFDPLIAEREALLATGVRDPYAIVMDKVLSPTEAMINGRKTILLGTYNYMGMTFDPDVIAAGKQALDEFGSGTTGSRVLNGTYQGHKACEDALKEFYGTEHAIVFSTGYQANLGMISTLAGKGDYIILDADSHASIYDGCWLGDAEIVRFRHNSVEDLDKRLGRLPAEAGKLVVLEGVYSMMGDIAPLQEMVAVSKKHGAMILVDEAHGMGFFGEHGRGVFEEAGVEADVDFVVGTFSKSVGTVGGFCVSNHPKFEVLRLVCRPYVFTASLPPSVVATAATSIRKLMHAGDKRAHLWKNSRRLHQGLRDMGYKLGTETAQSAIIAVILTDMAQAVALWQGLLEAGLYVNTARPPATPAGMFLLRCSLCAEHSDEQVEQILGMFESAGRATGVIPKLAAALEHHHHHH | soluble |
| ADPWQECMDYAVTLARQAGEVVCEAIKNEMNVMLKSSPVDLVTATDQKVEKMLISSIKEKYPSHSFIGEESVAAGEKSILTDNPTWIIDPIDGTTNFVHRFPFVAVSIGFAVNKKIEFGVVYSCVEGKMYTARKGKGAFCNGQKLQVSQQEDITKSLLVTELGSSRTPETVRMVLSNMEKLFCIPVHGIRSVGTAAVNMCLVATGGADAYYEMGIHCWDVAGAGIIVTEAGGVLMDVTGGPFDLMSRRVIAANNRILAERIAKEIQVIPLQRDDED | soluble |
| AEGKLNDELAKNKGKIPGLKIDQKIRGQMPERGWTEDDIKNTVSNGATGTSFDKRSPKKTPPDYLGRNDPATVYGSPGKYVVVNDRTGEVTQISDKTDPGWVDDSRIQWGNKNDQ | soluble |
| AEGVKTTAEAPAAEPALAAYVPMPRPFLFNLPGPDRARLVEIKVQLMVRGQDDEVLTQKHIPLIEDALLTTFSGADVQKLSTQAGKDELRQLALLSVQNTLQPVTGRKVVEKVLFTGFVMQ | not soluble |
| AEIFATHLEAIARHTGPVRTLIDLGAGDCAKAERLLPCLRPQRYVPIDISTDFLGQAVARVRRAHPWLDVLPLGRDLNAGLDLPEAIDAQGRLFFYPGSSIGNLDPDAALALLASLRAQAGVSGGLLIGVDRVKARAIVEPAYDDALHLTGAFNLNLLRHVNSVLGSDFDVRDWTHVALYNEPRSRMEMHLQARSDIRVRWPGGQRRFQADERIHTENSYKYTIERFVDLLRRAGYGDIRYWSDARDWFSVFSARA | not soluble |
| AELVSDKALESAPTVGWASQNGFTTGGAAATSDNIYIVTNISEFTSALSAGAEAKIIQIKGTIDISGGTPYTDFADQKARSQINIPANTTVIGLGTDAKFINGSLIIDGTDGTNNVIIRNVYIQTPIDVEPHYEKGDGWNAEWDAMNITNGAHHVWIDHVTISDGNFTDDMYTTKDGETYVQHDGALDIKRGSDYVTISNSLIDQHDKTMLIGHSDSNGSQDKGKLHVTLFNNVFNRVTERAPRVRYGSIHSFNNVFKGDAKDPVYRYQYSFGIGTSGSVLSEGNSFTIANLSASKACKVVKKFNGSIFSDNGSVLNGSAVDLSGCGFSAYTSKIPYIYDVQPMTTELAQSITDNAGSGKL | soluble |
| AEPTTHFGYQNVPESQKAKKVAEVFHSVAAKYDLMNDLMSGGIHRLWKRFTIELSGVRSGNRVLDIAGGTGDLTRQFSRLVGPTGEVVLADINASMLKVGRDKLLDKGVSGNVSFVQADAEKLPFPDNHFDCVTIAFGLRNVTHKDEAIRSMLRVLKPGGRLLVLEFSKPSSNLLSKAYDAYSFSLLPLMGKLVTNDSESYRYLAESIRMHPDQETLKAMMVEAGFDRVTYHNMTGGIV | not soluble |
| AESHWCYEVQAESSNYPCLVPVKWGGNCQKDRQSPINIVTTKAKVDKKLGRFFFSGYDKKQTWTVQNNGHSVMMLLENKASISGGGLPAPYQAKQLHLHWSDLPYKGSEHSLDGEHFAMEMHIVHEKEKGTSRNVKEAQDPEDEIAVLAFLVEAGTQVNEGFQPLVEALSNIPKPEMSTTMAESSLLDLLPKEEKLRHYFRYLGSLTTPTCDEKVVWTVFREPIQLHREQILAFSQKLYYDKEQTVSMKDNVRPLQQLGQRTVIKS | soluble |
| AGGPGSRARAAGARGCRLRSQLVPVRALGLGHRSDELVRFRFCSGSCRRARSPHDLSLASLLGAGALRPPPGSRPVSQPCCRPTRYEAVSFMDVNSTWRTVDRLSATACGCLG | soluble |
| AGKATANAPTDAAITAASDFAALEKACAGRLGVTLLDTASGRRIGHRQDERFPMCSTFKSMLAATVLSQAERMPALLDRRVPVGEADLLSHAPVTRRHAGKDMTVRDLCRATIITSDNTAANLLFGVVGGPPAVTAFLRASGDTVSRSDRLEPELNSFAKGDPRDTTTPAAMAATLQRVVLGEVLQPASRQQLADWLIDNETGDACLRAGLGKRWRVGDKTGSNGEDARNDIAVLWPVAGGAPWVLTAYLQAGAISYEQRASVLAQVGRIADRLIG | soluble |
| AGRTGRLHLAIECHSCFQWLMPALDAFRGQWPDVALDLSAAFSFAPLPALVRGDLDLVITSDPQALEAVTYLPLFKYELVLAVAESNPLAANRHVMPEQLADQTLITYPVDRQRLDIFTGF | not soluble |
| AGTHDYSTALKDSIIFFDANKCGPQAGENNVFDWRGACHTTDGSDVGVDLTGGYHDAGDHVKFGLPQGYSAAILGWSLYEFKESFDATGNTTKMLQQLKYFTDYFLKSHPNSTTFYYQVGEGNADHTYWGAPEEQTGQRPSLYKADPSSPASDILSETSAALTLMYLNYKNIDSAYATKCLNAAKELYAMGKANQGVGNGQSFYQATSFGDDLAWAATWLYTATNDSTYITDAEQFITLGNTMNENKMQDKWTMCWDDMYVPAALRLAQITGKQIYKDAIEFNFNYWKTQVTTTPGGLKWLSNWGVLRYAAAESMVMLVYCKQNPDQSLLDLAKKQVDYILGDNPANMSYIIGYGSNWCIHPHHRAANGYTYANGDNAKPAKHLLTGALVGGPDQNDKFLDDANQYQYTEVALDYNAGLVGVLAGAIKFFGGTIVNPPVKK | soluble |
| AHHHHHHASAKWVCKICGYIYDEDAGDPDNGISPGTKFEELPDDWVCPICGAPKSEFEKLEDGSRRMDKVDLQLIKILSQNSRLTYRELAEMLGTTRQRVARKVDKLKKLGIIRKFTIIPNLEKLNYMYAILLIKVKATENIYQVAKVLKDHEDVKILELGVGKYNIIAHVLVPKDIKKAQEKVNDVIKEINGIEDLEVEFVSDIPKFELL | soluble |

— the DeepSol protein solubility set
